Experimental findings from article doi:10.1101/2025.08.25.672096 (bioRxiv, 2025) are described below.

The target in the assay is T1, GST::KIF14(901-1648) (UniProt Q15058 901-1648).
T1 sequence (looked up): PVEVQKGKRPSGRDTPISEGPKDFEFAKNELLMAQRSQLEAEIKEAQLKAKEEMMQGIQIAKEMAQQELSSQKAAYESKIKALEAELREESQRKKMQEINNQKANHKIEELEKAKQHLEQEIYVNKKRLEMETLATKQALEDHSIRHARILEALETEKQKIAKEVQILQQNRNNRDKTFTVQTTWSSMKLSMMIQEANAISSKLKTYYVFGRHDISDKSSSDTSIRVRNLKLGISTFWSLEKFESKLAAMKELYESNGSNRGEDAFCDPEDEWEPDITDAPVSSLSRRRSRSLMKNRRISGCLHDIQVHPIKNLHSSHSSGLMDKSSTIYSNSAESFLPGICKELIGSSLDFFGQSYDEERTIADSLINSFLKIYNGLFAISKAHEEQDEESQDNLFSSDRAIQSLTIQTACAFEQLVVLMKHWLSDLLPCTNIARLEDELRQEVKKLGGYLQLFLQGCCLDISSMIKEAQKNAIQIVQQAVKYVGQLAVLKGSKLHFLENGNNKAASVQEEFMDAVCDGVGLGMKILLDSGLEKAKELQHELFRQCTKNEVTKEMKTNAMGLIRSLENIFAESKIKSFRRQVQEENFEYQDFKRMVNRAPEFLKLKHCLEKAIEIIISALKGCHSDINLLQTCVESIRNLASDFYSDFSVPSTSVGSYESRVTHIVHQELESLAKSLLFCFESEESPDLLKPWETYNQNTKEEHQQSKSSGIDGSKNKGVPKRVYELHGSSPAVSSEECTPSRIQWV
Put plainly: pull-down.

B1: MBP::CIT-K(420-585) (domain or fragment, human, UniProt O14578-4 420-585, looked up)
chain: SYSKALGILGRSESVVSGLDSPAKTSSMEKKLLIKSKELQDSQDKCHKMEQEMTRLHRRVSEVEAVLSQKEVELKASETQRSLLEQDLATYITECSSLKRSLEQARMEVSQEDDKALQLLHDIREQSRKLQEIKEQEYQAQVEEMRLMMNQLEEDLVSARRRSDLY
Take B1: the binding result is “binds”.

B2: MBP::CIT-K(420-585) phosphorylated in vitro by CDK1-cyclin B (pS440) (domain or fragment, human, UniProt O14578-4 420-585, looked up)
chain: B1 chain
modifications: phosphoserine at 440 (detected with the CIT-K pS440 antibody)
Take B2: the binding result is on record as “binds”.
